Results: patent US20200270588A1, “GLUCOSYL TRANSFERASE POLYPEPTIDES AND METHODS OF USE” (Syngenta Participations AG, priority 2017, published 2020)
Changes are numbered by the printed parent chain. Names may count otherwise.

B1: F313M: additional mutation in SEQ ID No: 17 (protein)
chain: MASSRTGAGAGGRVVVFPFPFQGHFNPVMRLARALHARGLAITVFHSGALDPADYPADYRFVPVTVEADPKLLASEDIAAIVTTLNASCDAPFRARLSALLAAEGRDSVRCVFTDVVWNAVLTASSDLGVPALGMMTASAASLRDYMAYRTLIDKGYLPVKEERKEDPVPELPPYLVKDLLRVDTSDLEEFAELLARTVTAARRASGLIFNTFPLIETDTLAEIHKALSVPVFAVAPLNKLVPTATASLHGVVQADRGCLQWLDTQQPGSVLYVSFGSFAAMDPHEFVELAWGLADSKRPFVWVVRPNLIRGMESGALPDGVEDEVRGRGIVVKWAPQEEVLAHPAVGGFLTHNGWNSTVEAISEGVPMVCCPRHGDQFGNMRYVCDVWKVGTELVGEQLERGQVKAAIDRLFGTKEGEEIKERMKEFKIAAAKGIGIGVDVDETASPRTDLTDLVDLIKSF
modifications: Mutated Zea mays Bx9 protein sequence
B2: M425F: additional mutation in SEQ ID No: 17 (protein)
chain: B1 chain with M313F, M425F
modifications: Mutated Zea mays Bx9 protein sequence
B3: I216Y: additional mutation in SEQ ID No: 17 (protein)
chain: B1 chain with I216Y, M313F
modifications: Mutated Zea mays Bx9 protein sequence
B4: F213W: additional mutation in SEQ ID No: 17 (protein)
chain: B1 chain with F213W, M313F
modifications: Mutated Zea mays Bx9 protein sequence
B5: W303L: additional mutation in SEQ ID No: 17 (protein)
chain: B1 chain with W303L, M313F
modifications: Mutated Zea mays Bx9 protein sequence
B6: E339V: additional mutation in SEQ ID No: 17 (protein)
chain: B1 chain with M313F, E339V
modifications: Mutated Zea mays Bx9 protein sequence
B7: K429S: additional mutation in SEQ ID No: 17 (protein)
chain: B1 chain with M313F, K429S
modifications: Mutated Zea mays Bx9 protein sequence
B8: A234C: additional mutation in SEQ ID No: 17 (protein)
chain: B1 chain with A234C, M313F
modifications: Mutated Zea mays Bx9 protein sequence
B9: L215D: additional mutation in SEQ ID No: 17 (protein)
chain: B1 chain with L215D, M313F
modifications: Mutated Zea mays Bx9 protein sequence
B10: P284F: additional mutation in SEQ ID No: 17 (protein)
chain: B1 chain with P284F, M313F
modifications: Mutated Zea mays Bx9 protein sequence
B11: P214D: additional mutation in SEQ ID No: 17 (protein)
chain: B1 chain with P214D, M313F
modifications: Mutated Zea mays Bx9 protein sequence
B12: I430P: additional mutation in SEQ ID No: 17 (protein)
chain: B1 chain with M313F, I430P
modifications: Mutated Zea mays Bx9 protein sequence
B13: A431P: additional mutation in SEQ ID No: 17 (protein)
chain: B1 chain with M313F, A431P
modifications: Mutated Zea mays Bx9 protein sequence

Assay: UDP luminescence plate assay of E. coli extracts, mutants within SEQ ID No: 17, 2 mM metribuzin
Type: biochemical, Zea mays
Settings: 2 mM metribuzin vs DMSO control, same mutant
Experimental: Activities observed with metribuzin were generally lower in magnitude than seen with herbicide V in the previous examples. For example, in one plate assay run with 2 mM metribuzin using 5 ul of diluted extract of plate-grown BL21DE3 cells expressing w/t bx9 and assayed for 40 minutes (as described in Example 2) the UDP-Glo luminescence signal was ˜3.4 E6 as compared with ˜2.3E6 in the DMSO control and ˜1.7E6 in the H24A null mutant control. […] It was therefore important to assess potential improvements in the metribuzin activity of the various mutants relative to the wild type bx9 enzyme based not only on the H24A null activity control but also based upon controls with DMSO in place of metribuzin acceptor substrate. In some plate assays (using more dilute extracts) the metribuzin signals from the w/t enzyme was the same or barely greater than the DMSO control. Additionally, some mutations gave an increase in the ‘background’ UDP-glucose hydrolysis activity with just DMSO present that was the same or similar to the magnitude of the increase in signal seen with metribuzin. In these instances it is therefore uncertain from just this UDP-Glo assay method whether the specific metribuzin signal (glucosylation of metribuzin) is improved or not i.e. the signal seen with metribuzin may or may not all or to a large part be attributable to increased background hydrolysis). […] Thus the ratio of the metribuzin to DMSO signal as well as the increase in signal relative to the w/t bx9 is used to help distinguish those mutations most likely to offer the highest activity to metribuzin. A follow up assay monitored by, for example, LC MS is one method to distinguish these cases more quantitatively. The tables below summarise the results from two different sets of luminescence plate assays to detect single mutations giving improvements in the magnitude of the signal with metribuzin relative to w/t bx9 and/or the apparent specificity for metribuzin as measured by the deviation of the ratio of metribuzin to DMSO control activity from the bx9 w/t value of around unity.
A further separate screen was carried out to explore a library of additional mutations at various positions within the context of SEQ ID No: 17 for improved metribuzin activity. These were assayed, assessed and scored as above. […] These were S75K (2.5)(1.25), A236G (4.0)(1.15), A433V (3.3)(9.0) and R449C (1.8)(1.2).
A yet further and more comprehensive screen was carried out to explore saturation mutagenesis at all remaining amino acid positions within the context of SEQ ID No:17 for improved metribuzin activity. Again these were assayed, assessed and scored as above and the results of (out of the thousands screened) of the subset that were of interest are summarized in Table 16.

In the case of B1, the “RATIO of the metribuzin signal to the DMSO signal” value is reported as 1.29.

Same assay, conditions: 2 mM metribuzin; additional mutation in SEQ ID No: 17

Point of comparison: B13, “metribuzin signal relative to the SEQ ID No:17 control (first parentheses)” value 2.8. Against it:
- B2 — higher, 4.1
- B3 — higher, 3.5
- B4 — higher, 4.7
- B5 — lower, 2.3
- B6 — lower, 2.6
- B1 — lower, 1.9
- B7 — lower, 2.4
- B8 — higher, 3.0
- B9 — higher, 3.1
- B10 — lower, 1.8
- B11 — higher, 3.7
- B12 — the same, 2.8

Point of comparison: B7, “ratio of metribuzin to DMSO signal (second parentheses)” value 1.30. Against it:
- B2 — higher, 1.96
- B3 — higher, 1.33
- B4 — lower, 1.24
- B5 — higher, 1.35
- B6 — higher, 1.51
- B1 — the same, 1.30
- B8 — lower, 1.29
- B9 — higher, 1.34
- B10 — lower, 1.29
- B11 — higher, 1.34
- B12 — higher, 1.34
- B13 — higher, 1.32

Same assay, conditions: 2 mM metribuzin; relative to SEQ ID No: 17 control

Point of comparison: B13, “SIGNAL: metribuzin signal of mutant divided by the signal of the SEQ ID No. 17 control” value 2.81. Against it:
- B2 — higher, 4.13
- B3 — higher, 3.50
- B4 — higher, 4.75
- B5 — lower, 2.30
- B6 — lower, 2.64
- B1 — lower, 1.91
- B7 — lower, 2.38
- B8 — higher, 2.96
- B9 — higher, 3.14
- B10 — lower, 1.81
- B11 — higher, 3.66
- B12 — higher, 2.82

Same assay, conditions: additional mutations within SEQ ID No: 17; DMSO in place of metribuzin

Point of comparison: B5, “luminescence signal in the DMSO control” value 3.10E+06. Against it:
- B2 — higher, 3.84E+06
- B3 — higher, 4.79E+06
- B4 — higher, 6.96E+06
- B6 — higher, 3.18E+06
- B1 — lower, 2.69E+06
- B7 — higher, 3.34E+06
- B8 — higher, 4.20E+06
- B9 — higher, 4.26E+06
- B10 — lower, 2.55E+06
- B11 — higher, 4.99E+06
- B12 — higher, 3.83E+06
- B13 — higher, 3.87E+06

Same assay, conditions: additional mutations within SEQ ID No: 17; control = SEQ ID No: 17; 2 mM metribuzin

Point of comparison: B11, “luminescence signal observed with 2 mM metribuzin” value 6.67E+06. Against it:
- B2 — higher, 7.53E+06
- B3 — lower, 6.38E+06
- B4 — higher, 8.66E+06
- B5 — lower, 4.20E+06
- B6 — lower, 4.81E+06
- B1 — lower, 3.48E+06
- B7 — lower, 4.34E+06
- B8 — lower, 5.40E+06
- B9 — lower, 5.72E+06
- B10 — lower, 3.30E+06
- B12 — lower, 5.15E+06
- B13 — lower, 5.12E+06
